{
  "source": "patent US20180221438A1",
  "about": "“MODULATING URACIL-DNA GLYCOSYLASE AND USES THEREOF” (Adaerata Limited Partnership, priority 2015, published 2018)",
  "molecules": {"B1": {"name": "Ugi: Uracil Glycosylase Inhibitor of Bacillus subtilis bacteriophage PBS1/PBS2, small protein (9.5 kDa), SEQ ID NO: 29; expressed in cells by retroviral delivery (protein)", "chain": "MTNLSDIIEKETGKQLVIQESILMLPEEVEEVIGNKPESDILVHTAYDESTDENVMLLTSDAPEYKPWALVIQDSNGENKIKML", "modifications": "bacillus subtilis", "notes": "expressed in cells by retroviral delivery"}},
  "key": {"UNG": {"biological_target": "T1, UNG (Mus musculus, UniProt P97931)", "T1 construct": "endogenous in cells; host or cells: CH12F3 (CH12F3-2) mouse B lymphoma cells, with or without retrovirally expressed Ugi and shRNAs; sonicated whole-cell extract", "T1 sequence (P97931 whole entry)": "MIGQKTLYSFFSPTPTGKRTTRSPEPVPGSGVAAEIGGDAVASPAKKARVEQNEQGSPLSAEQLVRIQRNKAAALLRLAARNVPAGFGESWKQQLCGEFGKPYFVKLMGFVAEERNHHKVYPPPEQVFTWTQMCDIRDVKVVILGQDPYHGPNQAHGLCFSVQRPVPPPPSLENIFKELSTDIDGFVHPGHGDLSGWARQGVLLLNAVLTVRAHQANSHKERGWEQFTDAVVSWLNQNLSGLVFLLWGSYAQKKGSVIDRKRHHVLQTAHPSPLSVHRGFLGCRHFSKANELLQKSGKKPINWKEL", "assay": "UNG activity assay with CH12F3 cell extracts", "format": "biochemical", "conditions": "CH12F3 Ugi cell extracts", "procedure": "UNG activity assay was performed as previously described ^69 with minor modifications. Briefly, exponentially growing cells were washed in 1X PBS buffer, resuspended in HED buffer (25 mM Hepes, 5 mM EDTA, 1 mM dithiothreitol and 10% glycerol at pH 7.8) with complete protease inhibitors (Roche) and lysed by sonication (five pulses of 30 seconds) in a Bioruptor™ (Diagenode). After centrifugation at 14,000 rcf for 20 min at 4° C., the supernatant was frozen in aliquots into liquid nitrogen and stored at […]. UNG assays were carried out in HED buffer by mixing 10 μg of cell extract with 1 pmol of fluorescein-labeled oligonucleotide substrate in a final volume of 10 μl for 3 hours at 37° C. The double-stranded oligonucleotide with a single dU/dG mismatch was made by annealing 5′-[…](SEQ ID NO: 45)-fluorescein (FITC) to the complementary oligonucleotide, 5′-[…]-3′(SEQ ID NO: 46). The reaction was terminated by the addition of 10 UI of formamide loading dye and the products were resolved on 15% TBE-urea polyacrylamide gels. The apyrimidinic endonuclease (APE) activity present in the extracts was sufficient to cleave all the abasic substrate generated by UNG during the reaction. The FITC signal of the reaction products was visualized using a Typhoon Phosphorlmager™ (GE Healthcare)."}, "DLBCL cells": {"tested_on": "DLBCL cells", "assay": "Metaphases with STL in DLBCL lines", "format": "cell-based, human", "conditions": "DLBCL lines expressing GFP or Ugi, and AID or shAID", "procedure": "For metaphase analysis cells were incubated with 50 ng/ml colcemide in cell culture media for 3 hours, harvested by trypsinization, incubated for 10 min at RT in 75 mM KCl, and fixed in freshly prepared methanol:glacial acetic acid (3:1 v/v). Cells were stored at 4° C. and when needed dropped onto wet slides and air-dried. For FISH analysis of the metaphases the cells were pre-treated with 0.05% w/v pepsin in 10 mM HCl during 10 minutes at 37° C. After washes with 1X PBS, cells were fixed with 1% formaldehyde in 1X PBS during 10 minutes at RT, washed again with 1X PBS and dehydrated with ethanol series (70-90-100%, 2 min each at RT) and air-dried ON. Then, cells were denatured with hybridization solution (70% deionized formamide; 2.5% 50× Denhardt solution; 10 mM Tris pH 7.5; 1.5 mM MgCl2) containing Alexa488-conjugated PNA probe (Alexa488-OO-(CCCTAA)3) 2 min at 80° C. on a heat block. After 4 hours incubation at RT in the dark, the samples were washed twice with wash solution (70% deionized formamide and 10 mM Tris-HCl [pH 7.2]) at RT and then twice with PBS. For DAPI staining of DNA, slides with metaphase spreads were incubated 10 min in 0.5 ? g/ml 4′, 6-diamino-2-phenylindole (DAPI) (Sigma) in PBS, washed with PBS for 2 min, and mounted in SlowFade™ Gold antifade mounting reagent (Life Technologies). Finally, the samples were analyzed as described above. […]"}, "CH12F3-2 cells": {"tested_on": "CH12F3-2 cells", "assay": "Cloning efficiency of single CH12F3-2 cells", "format": "cell-based, mouse", "conditions": "14 days after single-cell dilution with cytokines to induce CSR to IgA, vs CH12F3-2 GFP", "source_text": "B cells must expand clonally while expressing AID during the GC reaction. Based on the results described above the inventors asked whether UNG deficiency might limit the proliferation capacity of transformed B-cells expressing AID. To assess the effect of UNG deletion on the proliferation of B-cells expressing AID, the inventors immunized WT and UNG-null mice with a T-dependent antigen to stimulate germinal center (GC) B-cell expansion and AID expression in vivo. The inventors used an AID-GFPtg reporter mouse that allows identifying AID+ GC B-cells in response to immunization ^6,28. […] This reduction was explained by the ˜3-fold smaller average GC size in Ung^−/− versus Ung^+/+ AID-GFPtg mice, rather than any difference in the number of GC (FIGS. 10C-D). […] However, it must be noted that at variance with immunization, which stimulates a few B-cells that need to undergo clonal expansion to form the GC, stimulation in vitro with cytokines causes massive proliferation accompanied by a high level of spontaneous cell death, which likely obscures the additional increase due to UNG-deficiency (not shown). To address this limitation, the inventors evaluated the cloning efficiency of single B-cells. […]"}, "human DLBCL cell lines": {"tested_on": "human DLBCL cell lines", "assay": "Growth curves of human DLBCL cell lines", "format": "cell-based", "conditions": "DLBCL AID+ (Ocy-Ly3, Ocy-Ly10) and AID− (Ocy-Ly7, Ocy-Ly8) lines expressing Ugi", "procedure": "Stable shRNA-mediated knockdowns were generated in CH12F3-2 cells following protocols from the RNAi Consortium (TRC). Transfected cells were selected with puromycin at 1 μg/ml final concentration. For double knockdowns, CH12F3-2 cells were first transfected with a pLKO.1 neomycin version of the shRNA (shAID or shGFP) and selected, then transduced with the second shRNA and selected again with puromycin before analysis. CH12F3 Ugi cells transduced with pMIG-Ugi-IRES-GFP were generated as described ^39, and human lymphoma Ugi cells were generated by retroviral delivery using a pLPC-PURO system (pLPC-Ugi-PURO) and transduced cells were selected with 1 ug/m1 of puromycin. The Ugi protein from bacteriophage PBS2 and its ability to inhibit eukaryotic UNG have been described ^69,31.\nThe inventors therefore stratified human DLBCL cell lines on the basis of their AID protein levels into high (DLBCL AID^+) (Ocy-Ly3 and Ocy-Ly10 in FIG. 13A) or low expressing (DLBCL AID^−) lines (Ocy-Ly7 and Ocy-Ly8 in FIG. 13A) and established derivatives expressing Ugi for each one."}},
  "data": [
    {"molecule": "B1", "values": [
      {"measurement": "UNG activity", "setting": "UNG", "result": "lacked UNG activity"},
      {"measurement": "number of metaphases with STL", "setting": "DLBCL cells", "result": "significant increase in the number of metaphases with STL only when DLBCL cells expressed AID and Ugi but not with Ugi alone"},
      {"measurement": "cloning capacity", "setting": "CH12F3-2 cells", "result": "significant decrease in the cloning capacity"},
      {"measurement": "growth of DLBCL cells", "setting": "human DLBCL cell lines", "result": "only impaired the growth of DLBCL AID+ cells"}
    ]}
  ]
}
